Key:
Assay in all cases: EMSA
BsSpo0J N112S = molecular target: T1, BsSpo0J N112S (UniProt P26497 1-282, N112S)
T1 sequence: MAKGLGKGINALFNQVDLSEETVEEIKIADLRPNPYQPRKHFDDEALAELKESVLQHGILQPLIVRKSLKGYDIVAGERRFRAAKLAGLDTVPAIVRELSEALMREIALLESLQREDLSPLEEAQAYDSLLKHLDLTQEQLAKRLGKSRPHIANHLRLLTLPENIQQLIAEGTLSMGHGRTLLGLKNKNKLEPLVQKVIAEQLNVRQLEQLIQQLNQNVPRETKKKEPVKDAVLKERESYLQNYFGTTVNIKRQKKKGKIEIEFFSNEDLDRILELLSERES

BsSpo0J R80A = molecular target: T2, BsSpo0J R80A (UniProt P26497 1-282, R80A)
T2 sequence: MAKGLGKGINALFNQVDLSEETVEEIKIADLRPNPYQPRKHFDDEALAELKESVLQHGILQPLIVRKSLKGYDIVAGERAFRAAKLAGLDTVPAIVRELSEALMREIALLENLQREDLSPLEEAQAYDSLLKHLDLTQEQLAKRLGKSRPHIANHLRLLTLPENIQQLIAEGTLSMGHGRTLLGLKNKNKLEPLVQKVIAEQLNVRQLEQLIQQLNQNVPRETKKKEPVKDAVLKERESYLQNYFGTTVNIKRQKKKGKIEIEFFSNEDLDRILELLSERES

BsSpo0J H57E = molecular target: T3, BsSpo0J H57E (UniProt P26497 1-282, H57E)
T3 sequence: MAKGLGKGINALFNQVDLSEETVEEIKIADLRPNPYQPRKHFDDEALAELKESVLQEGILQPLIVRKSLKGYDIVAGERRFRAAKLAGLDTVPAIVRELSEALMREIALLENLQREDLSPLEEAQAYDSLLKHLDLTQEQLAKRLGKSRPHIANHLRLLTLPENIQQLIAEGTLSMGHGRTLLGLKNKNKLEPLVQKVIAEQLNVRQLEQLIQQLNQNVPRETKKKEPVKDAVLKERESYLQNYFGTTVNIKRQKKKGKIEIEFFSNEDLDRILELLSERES

BsSpo0J F81A = molecular target: T4, BsSpo0J F81A (UniProt P26497 1-282, F81A)
T4 sequence: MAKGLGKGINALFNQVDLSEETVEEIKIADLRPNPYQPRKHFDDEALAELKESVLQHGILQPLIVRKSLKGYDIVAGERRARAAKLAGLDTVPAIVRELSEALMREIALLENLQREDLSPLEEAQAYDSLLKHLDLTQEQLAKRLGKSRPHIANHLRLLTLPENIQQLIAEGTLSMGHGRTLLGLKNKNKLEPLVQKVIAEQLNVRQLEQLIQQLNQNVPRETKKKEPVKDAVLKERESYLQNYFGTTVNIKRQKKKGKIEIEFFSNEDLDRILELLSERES

BsSpo0J L60E = molecular target: T5, BsSpo0J L60E (UniProt P26497 1-282, L60E)
T5 sequence: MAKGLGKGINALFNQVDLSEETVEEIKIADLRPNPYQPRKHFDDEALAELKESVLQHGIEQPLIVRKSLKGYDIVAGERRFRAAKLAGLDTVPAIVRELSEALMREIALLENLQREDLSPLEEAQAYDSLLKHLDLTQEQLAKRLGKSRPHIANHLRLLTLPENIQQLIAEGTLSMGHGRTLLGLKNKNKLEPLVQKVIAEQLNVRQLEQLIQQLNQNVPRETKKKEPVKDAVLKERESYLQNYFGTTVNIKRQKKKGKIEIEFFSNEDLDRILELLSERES

BsSpo0J V75A = molecular target: T6, BsSpo0J V75A (UniProt P26497 1-282, V75A)
T6 sequence: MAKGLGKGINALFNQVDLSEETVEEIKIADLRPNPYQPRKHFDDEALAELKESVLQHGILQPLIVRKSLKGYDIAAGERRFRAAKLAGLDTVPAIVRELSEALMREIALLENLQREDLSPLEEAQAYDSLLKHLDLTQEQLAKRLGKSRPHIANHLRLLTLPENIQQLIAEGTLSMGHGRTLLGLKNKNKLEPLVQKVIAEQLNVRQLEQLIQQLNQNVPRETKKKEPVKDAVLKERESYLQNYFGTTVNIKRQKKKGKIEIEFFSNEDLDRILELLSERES

BsSpo0J R39A = molecular target: T7, BsSpo0J R39A (UniProt P26497 1-282, R39A)
T7 sequence: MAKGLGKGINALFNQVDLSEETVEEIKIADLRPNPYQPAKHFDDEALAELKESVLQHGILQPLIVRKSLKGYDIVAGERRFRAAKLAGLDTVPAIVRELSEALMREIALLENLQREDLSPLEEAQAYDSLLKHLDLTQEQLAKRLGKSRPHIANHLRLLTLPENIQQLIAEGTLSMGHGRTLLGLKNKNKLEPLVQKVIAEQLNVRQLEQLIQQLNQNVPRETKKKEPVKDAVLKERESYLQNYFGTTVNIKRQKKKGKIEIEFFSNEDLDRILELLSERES

BsSpo0J R79A = molecular target: T8, BsSpo0J R79A (UniProt P26497 1-282, R79A)
T8 sequence: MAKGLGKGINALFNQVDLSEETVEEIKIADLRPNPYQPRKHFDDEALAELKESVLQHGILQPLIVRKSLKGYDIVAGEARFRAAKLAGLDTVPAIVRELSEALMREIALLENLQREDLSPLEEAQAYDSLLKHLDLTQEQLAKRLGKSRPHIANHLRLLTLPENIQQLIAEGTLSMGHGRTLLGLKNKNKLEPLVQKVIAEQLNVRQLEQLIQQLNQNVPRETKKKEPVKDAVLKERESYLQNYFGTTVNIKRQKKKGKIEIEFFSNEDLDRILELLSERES

BsSpo0J WT = molecular target: T9, BsSpo0J WT (UniProt P26497 1-282)
T9 sequence: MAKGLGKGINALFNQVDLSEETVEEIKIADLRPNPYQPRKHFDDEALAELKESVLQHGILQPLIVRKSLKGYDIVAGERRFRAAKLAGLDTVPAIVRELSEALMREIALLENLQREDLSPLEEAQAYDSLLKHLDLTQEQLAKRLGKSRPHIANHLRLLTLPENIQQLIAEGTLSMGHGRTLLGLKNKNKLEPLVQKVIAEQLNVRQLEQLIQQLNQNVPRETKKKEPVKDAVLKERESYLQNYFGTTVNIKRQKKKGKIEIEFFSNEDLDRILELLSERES

Measured: binding result

B1: 24-bp parS (dsDNA)
DNA 1: AGAATGTTCCACGTGAAACAAAGA
DNA 2: TCTTTGTTTCACGTGGAACATTCT
binds: BsSpo0J N112S | BsSpo0J R80A | BsSpo0J H57E | BsSpo0J F81A | BsSpo0J L60E | BsSpo0J V75A | BsSpo0J R39A | BsSpo0J R79A | BsSpo0J WT

— PMC5499601 (Nucleic Acids Research, 2017)
